B1: HDV Ribozyme (parent)
chain: GGCCGGCAUGGUCCCAGCCUCCUCGCUGGCGCCGGCUGGGCAACAUUCCGAGGGGACCGUCCCCUCGGUAAUGGCGAAUGGGACCCA

Variants of: B1
Assay: self-cleavage, relative activity (ratio to wild type); higher = more cleavage; co-transcriptional

| Variant | self-cleavage |
| --- | --- |
| GGCCGGCAUGGUCCCAGCCUCCUCGCUGGCGCCGGCUGGGCGACAUUCCGAGGGGACCGUCCCCUCGGUAACGGCGAAUGGGACCCA [A42G U72C] | 0.475 |
| GGCCGGCAUGGCCCCAGCCUCCUCGCAGGCGCCGGCUGGGCAACAUUCCGAGGGGACCGUCCCCUCGGUAAUGGCGAAUGGGACCCA [U12C U27A] | 0.506 |
| GGCCGGCAUGGUCCCAGCCUCCUCGCUGGCGCCGGCUGGGCAACAUUCCGAGGGGACCGUGCCCUCGGUAAUGGCCAAUGGGACCCA [C61G G76C] | 0.967 |
| GGCCGGCAUGGUCCCAGCCUCCUCGCUGGCGCCGGCUGGGCAACAUUCCAAGGGGUCCGUCCCCUCGGUAAUGGCGAAUGGGACCCA [G50A A56U] | 1.06 |
| GGCCGGCAUGGUCCCACCCUGCUCGCUGGCGCCGGCUGGGCAACAUUCCGAGGGGACCGUCCCCUCGGUAAUGGCGAAUGGGACCCA [G17C C21G] | 0.145 |
| GGCCGGCAUGGUCCCAGCCUCCUCGCUCGCGCCGGCUGGGCAACAUACCGAGGGGACCGUCCCCUCGGUAAUGGCGAAUGGGACCCA [G28C U47A] | 0.0536 |
| GGCCGGCCUGGUCCCAGCCUCCUCGCUGGCGCCGUCUGGGCAACAUUCCGAGGGGACCGUCCCCUCGGUAAUGGCGAAUGGGACCCA [A8C G35U] | 0.269 |
| GGCCGGCAUGGUCCCAGCCUCCUCGCUGGCGCCGGCAGGGCAACAUUCUGAGGGGACCGUCCCCUCGGUAAUGGCGAAUGGGACCCA [U37A C49U] | 0.155 |
| GGCCGGCAUGGUCCCAGCCUCCUCGCUGGCGCCGGCUGGGCAACAUUCCGAGGGGACCGUCCCAUCGGUCAUGGCGAAUGGGACCCA [C64A A70C] | 0.623 |
| GGCCGGCAUGGUCCCAGCCUCCUCGAUGGCGCCGGCUGGGCAACAUUCCGAGGGGACCGUCCCCUCGGUAAUGGCGAAUGGGCCCCA [C26A A83C] | 0.752 |
| GGCCGGCAUGGUCCCCGCCUCCUCGCUGGCGCCGGCUGGGCAACAUUCCGAGGGGACCGUCCCCUCGGUAAUUGCGAAUGGGACCCA [A16C G73U] | 0.128 |
| UGCAGGCAUGGUCCCAGCCUCCUCGCUGGCGCCGGCUGGGCAACAUUCCGAGGGGACCGUCCCCUCGGUAAUGGCGAAUGGGACCCA [G1U C4A] | 0.277 |
| GGCCGGCAUGGUCCCAGCCUCGUCGCUGGCGCCGGCUGGGCAACAUUCCGAGGGGACCGUCCCCUCGGUAAUCGCGAAUGGGACCCA [C22G G73C] | 0.0845 |
| GGCCGGCAUGGUCCCAGCCUCCUUGCUGGCGCCGGCUGGGCAACAUUCCGAGGGGACCGUCCCCUGGGUAAUGGCGAAUGGGACCCA [C24U C66G] | 0.796 |
| GGCCGGCAUGGUCCCAGCCUCCUCGCUGGCGCCGGCUGGGCAACAUUCCGAGGGGACCGUCCCCUCGGUAAUAGCGAACGGGACCCA [G73A U79C] | 0.186 |
| GGCCGGCAUGAUCCCAACCUCCUCGCUGGCGCCGGCUGGGCAACAUUCCGAGGGGACCGUCCCCUCGGUAAUGGCGAAUGGGACCCA [G11A G17A] | 0.544 |
| GGCCGGCAUGGUCCCAGCCUCCUCGCUGGCGCCGGCUGGACAACAUUCCGAGGUGACCGUCCCCUCGGUAAUGGCGAAUGGGACCCA [G40A G54U] | 0.971 |
| GGACGGCAUGGUCCCAGCCUCCUCGCUGGCGCCGGCUGGGGAACAUUCCGAGGGGACCGUCCCCUCGGUAAUGGCGAAUGGGACCCA [C3A C41G] | 0.0761 |
| GGCCGGCAUGGUCCCAGCCUCCUCGCUGGAGCCGGCUGGGCAACAUUCCGAGGGGACCGUCCCCUCGGUAAUCGCGAAUGGGACCCA [C30A G73C] | 0.119 |
| GGCCGGCAUGGUCCCAGCCUCCUCGCAGGCGCCGGCUGGGCAGCAUUCCGAGGGGACCGUCCCCUCGGUAAUGGCGAAUGGGACCCA [U27A A43G] | 0.237 |
| GGCCGGCAUGGUCCCAGCCUCCUCGCUGGCGCCGGCUGGGCAACAUUCCGAGGGGACCGUCCCCUCGGUUAUGGCGAUUGGGACCCA [A70U A78U] | 0.404 |
| GGCCGGCAUGGUCCCAGCCUCCUCGCUGGCGCCGGCUGGGCAACAUUCCGAGGGGACCGUACCCACGGUAAUGGCGAAUGGGACCCA [C61A U65A] | 0.774 |

| Variant | self-cleavage |
| --- | --- |
| GGCCGGCAUGGUCCCAGCCUCCUCGCUGGCGCCGGCUGGCCAACAUUCCGAGGGGACCGUCCCCUCGGUCAUGGCGAAUGGGACCCA [G40C A70C] | 0.208 |
| GGCCGGCAUCGUCCCAGCCUCCUCGCUGGCGCCGGCUGGGCAACAUUCCGAGGGGACCGUCCCCUCGGUAAUGGCGAAUGGGCCCCA [G10C A83C] | 0.0615 |
| GGCCGGCAUGGUCCCAGCCUCCUCGCUGGCGCCGGCUUGGCAAAAUUCCGAGGGGACCGUCCCCUCGGUAAUGGCGAAUGGGACCCA [G38U C44A] | 0.16 |
| GGCCGGCAUGGUCCCAGCAUCCUCGCUGGCGCCGGCUGUGCAACAUUCCGAGGGGACCGUCCCCUCGGUAAUGGCGAAUGGGACCCA [C19A G39U] | 0.0639 |
| GGCCGUCAUGGUCCCAGCCUCCUCGCUGGCGCCGGCUGGGCAACAUUCCGAGGGGACCGUCUCCUCGGUAAUGGCGAAUGGGACCCA [G6U C62U] | 1 |
| GGCCGGCAUGGUCCCAGCCUCCUCGCUGGCGCCGGCUGGGGAACAUUCCGAGGGGACCGUCCCCUCCGUAAUGGCGAAUGGGACCCA [C41G G67C] | 0.678 |
| GGCCGGCAUGGUCCCAGCCUCCUCGCUGGUGCCGGCUGGGCAACAUUCCGCGGGGACCGUCCCCUCGGUAAUGGCGAAUGGGACCCA [C30U A51C] | 0.594 |
| GGCCGGCAUGGUCCCAGCCUCCUCGCGGGCGCCGGCUGGGCAACAUUCCGAGGGGACCGUCCCCUCGUUAAUGGCGAAUGGGACCCA [U27G G68U] | 0.858 |
| GGCCGGCAUGGUCCCAGCCUCCUCGCUGGCGACGGCUGGCCAACAUUCCGAGGGGACCGUCCCCUCGGUAAUGGCGAAUGGGACCCA [C32A G40C] | 0.134 |
| GGCCGGCAUGGUCCCAGGCUCAUCGCUGGCGCCGGCUGGGCAACAUUCCGAGGGGACCGUCCCCUCGGUAAUGGCGAAUGGGACCCA [C18G C22A] | 0.172 |
| GGCCGGCAUGGUCCCAGCUUCCUCGCUGGCGUCGGCUGGGCAACAUUCCGAGGGGACCGUCCCCUCGGUAAUGGCGAAUGGGACCCA [C19U C32U] | 0.295 |
| GGCCGGCAUGGUCCCAGCCUCCUCGCUGGCGCCGGCUGGGCAACAUUCCGAGGGGACCGUCCCCUCGGUAAUGGCGAAUGGGUCCCU [A83U A87U] | 0.507 |
| GGCCGGCAUGGUCCCAGCCUUCUCGCUGGCGCCGGCUGGGCAACAUUCCGAGGGGACCGUCCCCUCGGUAAAGGCGAAUGGGACCCA [C21U U72A] | 0.141 |
| GGCCGGCAUGUUCCCAACCUCCUCGCUGGCGCCGGCUGGGCAACAUUCCGAGGGGACCGUCCCCUCGGUAAUGGCGAAUGGGACCCA [G11U G17A] | 0.45 |
| GGCCGGCAUGGUCCCAGCCUUCUCGCUGGCGCCGGCUGGGCAACAUUCCGAGGGGACCGUCCCCUCGGUAAUCGCGAAUGGGACCCA [C21U G73C] | 0.119 |
| GGCCGGCAUGGUCCCCGCCUCCUCGCUGGCGCCGGCUGGGCAACAUUCCGAGGGGACCGUCCCCUCGGUAAUGGCGAAUGGGCCCCA [A16C A83C] | 0.227 |
| GGCCGGCAUGGUCCCCGCCUCCUCACUGGCGCCGGCUGGGCAACAUUCCGAGGGGACCGUCCCCUCGGUAAUGGCGAAUGGGACCCA [A16C G25A] | 0.0405 |
| GGCCGGCAUGGUCCCAGCAUCCUCGCUGGCGCCGGCUGGGCAACAUUCCGAGGGGACCGUCCCCUCGGAAAUGGCGAAUGGGACCCA [C19A U69A] | 0.143 |
| GGCCGGUAUGGUCCCAGCCUCCUAGCUGGCGCCGGCUGGGCAACAUUCCGAGGGGACCGUCCCCUCGGUAAUGGCGAAUGGGACCCA [C7U C24A] | 0.256 |
| GGCCGGCAUGGUCCCAGCCUCCUCGCUGGCGCCGGCUGGGCAACAUUCCGAGGGGACCGUCCCCUCGGUAAUGUCGAAUGGGACACA [G74U C85A] | 0.415 |
| GGCCGGCAUGGUCCCAGCCUCCUCGCUGGCGCCGGCUGGGCAAAAUUCUGAGGGGACCGUCCCCUCGGUAAUGGCGAAUGGGACCCA [C44A C49U] | 0.462 |
| GGCCGGCAUGGUCCCAGCCUCCUCGCUGGCGCCAGCUGGGCAAAAUUCCGAGGGGACCGUCCCCUCGGUAAUGGCGAAUGGGACCCA [G34A C44A] | 0.089 |

| Variant | self-cleavage |
| --- | --- |
| GGCCGGCAUGGUCCCAGCCUCCUCGCUGGCGCCGGCUGGGCAACAUUCCGAGGGGACCGACCCCUCGGUAAUCGCGAAUGGGACCCA [U60A G73C] | 0.532 |
| GGCCGGCAUGGUCCCAGCCUCCUCGCCGGCGCCGGCUGGGCAACAUUCCGAGGGGACCGUCCCCUCGGUAAUGGCGAAGGGGACCCA [U27C U79G] | 0.32 |
| GGCCGGCAUGGUCCCAGCCUCCUGGCUGGCGCCGGCUGGGCAACAUUCCGAGGGGACGGUCCCCUCGGUAAUGGCGAAUGGGACCCA [C24G C58G] | 0.108 |
| GGCCGGCAUGGUCCCAGCCUCCUCGCUGGCGCCGGCUGGGCAACAUUCCGAGGGGACCGUCCCCUCAGUAAUGGCGAAUGGGACCUA [G67A C86U] | 0.845 |
| GGCCGGCAUGGUCCCAGCCUCCUCGCUGGCGCCGGCUGGGCAACAUUCCGUGGGGACCGUCCCCUCGGUAAUAGCGAAUGGGACCCA [A51U G73A] | 0.607 |
| GGCCGGCAUGGUCCCAGCCUCCUCGCUGGCGCCGGCUGGGCUACCUUCCGAGGGGACCGUCCCCUCGGUAAUGGCGAAUGGGACCCA [A42U A45C] | 0.361 |
| GGCCGGCAUGGUCCCAGCCUCCACGCUGGCGCCGGCUGGGCAACAUUCCGAGGGGACCGUCCACUCGGUAAUGGCGAAUGGGACCCA [U23A C63A] | 0.812 |
| GGCCGGCAUGGUCCUAGCCUCCUCGCUGGCGCCGGCUGGGCAACAUUCCGAGGGGACCGUCCCCUCGGUAAUGGGGAAUGGGACCCA [C15U C75G] | 0.0665 |
| GGCCGGCAUGGUCCCAGCCUCCUCGCUGGCGCCGGCUUGGCAACAUUCCGAGGGGACCGUCCCCUCGGUAAUGGCGGAUGGGACCCA [G38U A77G] | 0.0923 |
| GGCCGGCAUGGUCCCAGCCUCCUCGCUGGCGCCGGCUGGGCAACAUUCCGAGAGGACCGUCCCCUCGGAAAUGGCGAAUGGGACCCA [G53A U69A] | 1.03 |
| GGCCGGCAUGGUCCCAGCCUCCUCGCUGGCGCCGGCAGGGCAACAUUCCGAGGGGACCGUCCCCUCGGUAAUGGCGAAUUGGACCCA [U37A G80U] | 0.0727 |
| GGCGGGCAUGGUCCCAGCCUCCUCGCUGGCGCCGGCUGGGCAACAUUCCGAGGGGACCGUCCCCUCGGUAAUGUCGAAUGGGACCCA [C4G G74U] | 0.111 |
| GGCCGGCAUGGUCCCAGCCUCCUCGCUGGCGCCGGCUGGGCAACAUUGCGAGGGGACCGUCCCCUCGGUAAUUGCGAAUGGGACCCA [C48G G73U] | 0.506 |
| GGCCGGCAUGGUCCCAGCCUCCUCGCUGGCGCCGGCUGGGCAACAUUCCGAGGGGACAGUCCCCUCGGUAAUGGCCAAUGGGACCCA [C58A G76C] | 1.1 |
| GGCCGGCAUGGUCCCAGCCUCCUGGCUGGCUCCGGCUGGGCAACAUUCCGAGGGGACCGUCCCCUCGGUAAUGGCGAAUGGGACCCA [C24G G31U] | 0.0604 |
| GGCCGGCAUGGUCCCAGCCUCCUCGCUGGCCCCGGCUGGGCAACAUUCCGAGGGGACCGUCCCGUCGGUAAUGGCGAAUGGGACCCA [G31C C64G] | 0.292 |
| GGCCGGCAUGGUCCCAGCCUCCUCGCUGGCGCCGGCUGGGCAACAUUCGGAGGGGACCGUCCCCUCAGUAAUGGCGAAUGGGACCCA [C49G G67A] | 0.637 |
| GGCCGGCAUGGUCCCAGCCUCCUCACUGGCGCCGGCUGGGCAACAUUCCGAGGGGACCGUCCCCGCGGUAAUGGCGAAUGGGACCCA [G25A U65G] | 0.269 |
| GGCCGGCAUGGUCCCAGCCUCCUCGCUGGCACCGGCUGGGCAACAUUCUGAGGGGACCGUCCCCUCGGUAAUGGCGAAUGGGACCCA [G31A C49U] | 0.404 |
| GGCUGGCAUGGUCCCAGCCUCCUCGCUGGCUCCGGCUGGGCAACAUUCCGAGGGGACCGUCCCCUCGGUAAUGGCGAAUGGGACCCA [C4U G31U] | 0.0346 |

— the RNAGym collection of RNA variant scans (doi:10.7554/elife.80360)
